Patent US20050064514A1
“And” between values parts separate entries of the source, which are not always exact repeats. Equal values may be shown once.

Assays:
[1] = biological target: soluble monomeric FcγRIIIA-linker-AVITAG (158V allele) (human) (UniProt P08637); experiment: BIAcore
[2] = biological target: soluble monomeric FcγRIIIA-linker-AVITAG (158V allele) (human) (UniProt P08637); experiment: BIAcore separate fit
[3] = biological target: soluble monomeric FcγRIIIA-linker-AVITAG (158V allele) (human) (UniProt P08637); experiment: ELISA
[4] = biological target: soluble FcγRIIB (form used in the ELISA not stated) (human) (UniProt P31994); experiment: ELISA
[5] = biological target: FcγRIIB-Fc fusion protein (soluble dimeric FcγRIIB) (human) (UniProt P31994); experiment: BIAcore
[6] = biological target: FcγRIIB-Fc fusion protein (soluble dimeric FcγRIIB) (human) (UniProt P31994); experiment: BIAcore separate fit
[7] = biological target: wild type CH1-CH3 Fc fusion protein displayed on yeast (pYD-CH1) (Saccharomyces cerevisiae; human) (UniProt P32781); experiment: FACS titration 1.4 to 0.0006 µM, mean fluorescence, nonlinear regression
[8] = biological target: soluble monomeric FcγRIIIA-linker-AVITAG (158V allele) (human) (UniProt P08637); experiment: FACS, 0.1 µM biotinylated FcγRIIIA then 0.1 µM unlabeled FcγRIIIA

Chain of FcγRIIB-Fc fusion protein (soluble dimeric FcγRIIB) (human) (P31994 43-217): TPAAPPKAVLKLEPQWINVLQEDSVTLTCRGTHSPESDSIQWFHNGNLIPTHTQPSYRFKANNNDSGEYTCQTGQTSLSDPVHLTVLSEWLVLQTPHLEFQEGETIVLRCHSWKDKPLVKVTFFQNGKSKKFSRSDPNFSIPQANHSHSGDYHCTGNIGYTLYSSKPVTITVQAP
Chain of soluble monomeric FcγRIIIA-linker-AVITAG (158V allele) (human) (P08637 17-203 F176V limits assumed, form in doubt): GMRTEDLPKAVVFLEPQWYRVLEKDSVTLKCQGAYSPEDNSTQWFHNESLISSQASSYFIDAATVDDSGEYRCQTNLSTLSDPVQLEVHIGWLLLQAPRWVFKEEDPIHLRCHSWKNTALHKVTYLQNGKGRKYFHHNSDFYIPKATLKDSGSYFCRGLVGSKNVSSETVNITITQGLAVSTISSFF
Chain of soluble FcγRIIB (form used in the ELISA not stated) (human) (P31994 43-180 limits assumed, form in doubt): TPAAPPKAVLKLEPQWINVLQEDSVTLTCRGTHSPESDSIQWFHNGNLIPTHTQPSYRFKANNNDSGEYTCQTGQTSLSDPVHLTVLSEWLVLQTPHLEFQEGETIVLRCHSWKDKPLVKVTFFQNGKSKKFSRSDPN
Chain of P396L Fc variant displayed on the yeast surface (P32781 19-87, stated change not applied): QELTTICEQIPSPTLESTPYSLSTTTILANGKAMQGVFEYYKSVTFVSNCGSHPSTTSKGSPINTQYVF

| Substance | Kd [1] | Kd [2] | other results |
| --- | --- | --- | --- |
| ch4-4-20 H268N, P396L (from UniProt P01857 1-330) (antibody) | 178 nM | – | – |
| ch4-4-20 P247L, N421K (from UniProt P01857 1-330) (antibody) | 62 nM | – | – |
| ch4-4-20 K288M, K334E (from UniProt P01857 1-330) (antibody) | 75.4 nM | 75.4 nM | – |
| ch4-4-20 G316D, A378V, D399E (from UniProt P01857 1-330) (antibody) | 72 nM | – | – |
| ch4-4-20 K248M (from UniProt P01857 1-330) (antibody) | 154 nM and 180 nM | – | – |
| ch4-4-20 Y319F, P352L, P396L (from UniProt P01857 1-330) (antibody) | 125 nM | – | – |
| chimeric 4-4-20 anti-fluorescein monoclonal antibody, wild type Fc | – | – | ELISA binding relative to wt [3]: 1 x; ELISA, OD [3]: 0.5 OD; ELISA binding relative to wt [4]: 1 x; ELISA, OD [4]: 0.4 OD; Kd [5]: 94 nM; koff [5]: 0.094 s⁻¹; Kd [6]: 61.4 nM; koff [6]: 0.085 s⁻¹ |
| ch4-4-20 K334E, T359N, T366S (from UniProt P01857 1-330) (antibody) | 55.2 nM | – | – |
| soluble FcγRIIIA tetrameric complex (from UniProt P08637 17-203) (receptor) | – | – | Kd [7]: 6 nM |
| P396L Fc variant displayed on the yeast surface (from UniProt P32781 19-87) | – | – | loss of cell staining after 1 minute with unlabeled receptor [8]: 50% |

Further lines, with some results ahead:

| Kd [1] | Kd [2] | Substance | other results |
| --- | --- | --- | --- |
| 195 nM | – | ch4-4-20 E293V, Q295E, A327T (from UniProt P01857 1-330) (antibody) | – |
| 128 nM | 128 nM | ch4-4-20 K288N, A330S, P396L (from UniProt P01857 1-330) (antibody) | – |
| – | 48.6 nM | ch4-4-20 Mut25(0225) (MgFc 25: E333A, K334A, S298A) (from UniProt P01857 1-330) (antibody) | – |
| 70.2 nM | 70.2 nM | ch4-4-20 K334E, R292L (from UniProt P01857 1-330) (antibody) | – |
| – | 264 nM | ch4-4-20 Mut 6 (S219V) (from UniProt P01857 1-330) (antibody) | ELISA, OD [3]: 0.6 OD |
| 160 nM | 214 nM | ch4-4-20 V379M (from UniProt P01857 1-330) (antibody) | – |
